Laboratory results taken from patent US20240182561A1 (Regeneron, published 2024).

B1: REGN7660 (antibody, human IgG4 S228P, kappa, V domains shown)
VH: EVQLVESGGGLVQPGGSLKLSCTASGLTLSDSAMHWVRQASGKGLEWVGRIRNKANRYATEYAASVKGRFTISRDDSKNTAYLQMNSLKTEDTAVYYCTRNWKIFLFDYWGQGTLVTVSS
VL: EIVLTQSPGTLTLSPGERATLSCRASQSVGSKYLAWFQQKRGQAPRLLIYGASSRTSGIPDRISGSGSGTDFTLTISRLEPEDFAVYYCQQYGSSPWTFGQGTKVEIKR
notes: hIgG4
B2: H2aM31941N (antibody, mouse IgG1, kappa, V domains shown)
VH: QVQLVQSGAEVKKPGASVKVSCKASGYAFTTYGITWVRQAPGQGLEWMGWISAYNGNTNYAEKVQGRFTMTTDTSTNTAYMELRSLRSDDTAVYFCARKGHYGSGTYYNPFGFDFWGQGTMVTVSS
VL: EIMLMQSPGTLSLSPGERATLSCRASQSVSSSYLAWYQQKPGQAPRLLIYGASSRATDIPDRFSGSGSGTDFTLTISRLEPEDFAVYFCQQYYGSPWTFGQGTKVEIKR
notes: Both names are treated as one molecule; also called H1M31941N; lot H1M31941N-L1
B3: REGN10715 (antibody, human IgG4 S228P, kappa)
heavy: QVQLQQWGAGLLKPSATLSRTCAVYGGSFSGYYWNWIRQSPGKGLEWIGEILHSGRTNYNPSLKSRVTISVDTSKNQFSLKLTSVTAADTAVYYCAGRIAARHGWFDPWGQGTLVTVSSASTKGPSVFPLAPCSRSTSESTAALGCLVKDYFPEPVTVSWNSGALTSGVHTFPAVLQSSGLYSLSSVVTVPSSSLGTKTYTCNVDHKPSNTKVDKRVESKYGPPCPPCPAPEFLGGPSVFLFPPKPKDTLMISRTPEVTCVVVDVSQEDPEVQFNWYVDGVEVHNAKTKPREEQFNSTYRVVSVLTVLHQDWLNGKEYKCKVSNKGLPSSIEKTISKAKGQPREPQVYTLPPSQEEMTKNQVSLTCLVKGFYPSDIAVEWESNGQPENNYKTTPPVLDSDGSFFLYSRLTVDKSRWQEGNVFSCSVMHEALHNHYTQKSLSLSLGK
light: DIQMTQSPSSVSTSVGDRVTISCRASQDIRKWLAWYQQKPGKAPKLLIYATSSLQSGVPSRFSGSGSGTDFTLTISSLQPEDFATYFCQQANSFPFTFGQGTKLEIKRTVAAPSVFIFPPSDEQLKSGTASVVCLLNNFYPREAKVQWKVDNALQSGNSQESVTEQDSKDSTYSLSSTLTLSKADYEKHKVYACEVTHQGLSSPVTKSFNRGEC
notes: hIgG4
B4: H2aM31944N (antibody, mouse IgG2a, kappa, V domains shown)
VH: QVQLVESGGGVVQPGRSLRLSCEASGITFRNYGMHWVRQAPGKGLEWVAVMWYDGSNKYYADSVKGRFTISRDNSKNTVYLQMNSLRAEDTAVYYCARRGHIATAAPFDYWGQGTLVTVSS
VL: DIQMTQSPSSLSASVGDRVTISCRASQSISSYLNWYQQKPGKAPKVLMYAASSLQSGVPSRFSGSGSGTDFTLTISSLQPEDFATYYCQQSYSTPPITFGQGTRLEIKR
notes: mIgG2a; also called CACNG1 mIgG2a antibody
B5: REGN10713 (antibody, human IgG4 S228P, lambda)
heavy: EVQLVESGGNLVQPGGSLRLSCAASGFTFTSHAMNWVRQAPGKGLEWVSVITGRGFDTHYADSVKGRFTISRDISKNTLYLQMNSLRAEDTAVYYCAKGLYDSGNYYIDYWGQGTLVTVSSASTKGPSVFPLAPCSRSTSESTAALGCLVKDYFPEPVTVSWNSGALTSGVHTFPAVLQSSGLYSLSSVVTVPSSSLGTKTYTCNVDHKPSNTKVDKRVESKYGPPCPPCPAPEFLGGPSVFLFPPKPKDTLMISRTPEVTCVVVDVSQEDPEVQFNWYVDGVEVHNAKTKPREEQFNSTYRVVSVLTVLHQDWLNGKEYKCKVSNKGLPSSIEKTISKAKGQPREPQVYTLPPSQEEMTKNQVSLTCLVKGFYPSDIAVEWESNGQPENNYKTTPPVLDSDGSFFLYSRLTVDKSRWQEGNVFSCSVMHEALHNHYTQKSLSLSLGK
light: QSVLTQPPSVSAAPGQKVTISCSGSSSNIGNNYVSWYQQLPGTAPKLLIYDNNKRPSGIPDRFSGSKSGTSATLGITGLQTGDEADYYCGTWDLSLSFNWVFGGGTKLTVLGQPKAAPSVTLFPPSSEELQANKATLVCLISDFYPGAVTVAWKADSSPVKAGVETTTPSKQSNNKYAASSYLSLTPEQWKSHRSYSCQVTHEGSTVEKTVAPTECS
notes: hIgG4
B6: REGN10728 (antibody, human IgG4 S228P, kappa)
heavy: QVQLVESGGGVVQPGRSLRLSCTASGITFRNYGMHWVRQAPGKGLEWVAVMWYDGSNKYYADSVKGRFTISGDNSKVYLQMNSLRAEDTAVYYCARRGTIRTAAPFDYWGQGTLVTVSSASTKGPSVFPLAPCSRSTSESTAALGCLVKDYFPEPVTVSWNSGALTSGVHTFPAVLQSSGLYSLSSVVTVPSSSLGTKTYTCNVDHKPSNTKVDKRVESKYGPPCPPCPAPGGGGPSVFLFPPKPKDTLMISRTPEVTCVVVDVSQEDPEVQFNWYVDGVEVHNAKTKPREEQFNSTYRVVSVLTVLHQDWLNGKEYKCKVSNKGLPSSIEKTISKAKGQPREPQVYTLPPSQEEMTKNQVSLTCLVKGFYPSDIAVEWESNGQPENNYKTTPPVLDSDGSFFLYSRLTVDKSRWQEGNVFSCSVMHEALHNHYTQKSLSLSLGK
light: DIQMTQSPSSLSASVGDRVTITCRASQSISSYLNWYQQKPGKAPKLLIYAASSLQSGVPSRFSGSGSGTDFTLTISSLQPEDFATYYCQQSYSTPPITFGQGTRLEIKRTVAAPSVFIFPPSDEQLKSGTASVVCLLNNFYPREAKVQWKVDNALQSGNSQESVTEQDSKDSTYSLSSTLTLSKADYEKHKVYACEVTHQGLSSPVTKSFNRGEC
notes: also called H2aM31929N/REGN10728; CACNG1 hIgG4 uber stealth antibody

target: T1, mouse CACNG1 expressed on cells (mouse, UniProt O70578 1-223); experiment: imaging cell binding, C2C12 mouse myotubes
T1 construct: whole, on cells; Transfected in HEK293/mCACNG1; endogenous in C2C12 myotubes and wildtype mouse myofibers; Each row names the cell type under assay; also called mCACNG1; HEK293/mCACNG1
T1 sequence (looked up): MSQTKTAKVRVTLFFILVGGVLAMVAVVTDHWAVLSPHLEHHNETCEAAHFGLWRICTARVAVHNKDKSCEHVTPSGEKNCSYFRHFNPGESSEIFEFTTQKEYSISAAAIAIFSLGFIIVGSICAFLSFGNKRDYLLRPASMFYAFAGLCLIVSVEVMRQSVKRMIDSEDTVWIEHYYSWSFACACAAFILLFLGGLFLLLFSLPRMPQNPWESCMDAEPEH
Procedure: (§1) HuSKM were seeded in collagen-coated 96-well plates (Greiner Bio-One #655956) at 8,500 cells/well and grown for 24 hours. The growth media was changed to MyoTonic Differentiation Media (Cook Myosite Cat #MD-5555) and replaced every 2 days. Myotubes were assayed after 6 days of differentiation. C2C12 mouse myoblasts were maintained in DMEM with 10% FBS and 1% penicillin-streptomycin supplement and grown in a 37° C. incubator with 5% CO₂. C2C12 cells were seeded in collagen-coated 96-well plates (Greiner Bio-One #655956) at 10,000 cells/well for the cell binding assay and 5,000 cells/well for the cell killing assay. After 24 hours, growth media was replaced with differentiation media (DMEM with 2% horse serum) and placed in a 37° C. incubator with 7.5% CO₂. C2C12 myotubes were assayed after 3 days of differentiation. HEK293/hCACNG1, HEK293/mCACNG1, and HEK293 cells were seeded at 10,000 cells (cell binding assay) or 2,000 (cell killing assay) per well in 96-well black collagen coated plates (Greiner Bio-One, cat #655956) in complete growth media and grown overnight at 37° C. in 5% CO₂.
(§2) Relative binding of anti-CACNG1 antibodies was assessed across the entire panel of cell lines via imaging analysis. […] After one wash with antibody dilution buffer, samples were fixed in CytoFix (BD Biosciences, Cat #554655) diluted 1:1 in PBS and supplemented with a 1:2000 dilution of Hoechst 33342 (Thermo, Cat #H1399) for 20 minutes on ice. Images were acquired with a 10× objective on the Opera Phenix (Perkin Elmer) and relative fluorescence units (RFU) was determined using Harmony software (Perkin Elmer).

| Binder | S/N | binding result | EC50 |
| --- | --- | --- | --- |
| B1 | 1 fold |  |  |
| B2 | 1.2 fold | no binding (tested: 100 nM highest tested) |  |
| B3 | 8.4 fold |  | 2.3 nM |
| B4 | 0.7 fold |  |  |
| B5 | 2 fold |  |  |
| B6 | 1.8 fold | no binding (tested: 100 nM highest tested) |  |

target: T1, mouse CACNG1 expressed on cells; experiment: cell-based or functional assay

| Binder | % KILL, indirect cell killing, C2C12 | % KILL, indirect cell killing, HEK293/mCACNG1 | EC50/IC50, indirect cell killing, C2C12 | EC50/IC50, indirect cell killing, HEK293/mCACNG1 |
| --- | --- | --- | --- | --- |
| B1 | 99.8% | 92.3% | 0.0237 nM | 0.0134 nM |
| B2 | 0.4% | 4.9% | > 10 nM | > 1 nM |
| B3 | 99.8% | 96.1% | 0.00469 nM | 0.000187 nM |
| B4 | 0% | 4.3% | > 10 nM | > 1 nM |
| B5 | 0% | 2.4% | > 10 nM | > 1 nM |
| B6 | 1.6% | 5.1% | > 10 nM | > 1 nM |

target: T2, human CACNG1 expressed on cells (human, UniProt Q06432 1-222); experiment: cell-based or functional assay
T2 sequence (Q06432 whole entry): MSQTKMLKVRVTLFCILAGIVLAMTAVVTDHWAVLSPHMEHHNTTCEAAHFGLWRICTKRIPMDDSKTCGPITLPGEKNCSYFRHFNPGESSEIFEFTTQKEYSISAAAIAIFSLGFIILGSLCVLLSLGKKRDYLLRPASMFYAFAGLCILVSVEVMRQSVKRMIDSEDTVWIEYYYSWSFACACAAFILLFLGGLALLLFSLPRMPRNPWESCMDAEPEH

| Binder | % KILL, indirect cell killing, HEK293/hCACNG1 | % KILL, indirect cell killing, HuSKM | EC50/IC50, indirect cell killing, HEK293/hCACNG1 | EC50/IC50, indirect cell killing, HuSKM |
| --- | --- | --- | --- | --- |
| B2 | 95.4% | 91.2% | 0.00217 nM | 0.112 nM |
| B3 | 96.4% | 99.6% | 0.000629 nM | 0.0097 nM |
| B4 | 95.7% | 98.6% | 0.000356 nM | 0.0116 nM |
| B6 | 95.8% | 99.3% | 0.000519 nM | 0.0381 nM |

target: T3, nanodisc embedded human CACNG1 expressed with a C-terminal PADRE-Flag-His tag (human, UniProt Q06432 1-222); experiment: SPR, anti-His-captured nanodisc, 25 C
T3 construct: Captured on an anti-His Biacore surface; also called human CACNG1 nanodisc; CACNG1 nanodisc; not shown: C-terminal tag
T3 sequence (Q06432 whole entry): as above
Procedure: Equilibrium dissociation constants (KD values) for nanodisc embedded human CACNG1 expressed with a C-terminal […] tag (human CACNG1 nanodisc; concentration 0.82 mg/ml) binding to purified anti-CACNG1 antibodies were determined using a real-time surface plasmon resonance biosensor technology with a Biacore T200 instrument. The CM5 Biacore sensor surface was derivatized by amine coupling with a monoclonal mouse anti-His antibody (Cytiva; Marlborough, MA). All Biacore binding studies were performed in a buffer composed of 0.01M HEPES, 0.15M NaCl, 1 mM CaCl₂, 0.5 mM MgCl₂, pH 7.4 (HBS-N++ running buffer). Different concentrations of anti-CACNG1 antibodies (ranging from 300 nM to 12 nM in 5-fold serial dilutions) prepared in HBS-N++ running buffer were injected over the captured human CACNG1 nanodisc at a flow rate of 30 μL/minute. Antibody association was monitored for 2 minutes while dissociation was monitored in HBS-N++ running buffer for 5 minutes. At the end of each cycle, the human CACNG1 nanodisc capture surface was regenerated using three 10 second injections of 10 mM Gly pH1.5. All binding kinetics experiments were performed at 25° C.
The specific SPR-Biacore sensorgrams were obtained by a double referencing procedure. The double referencing was performed by first subtracting the signal of each injection over a reference surface (anti-His) from the signal over the experimental surface (anti-His captured human CACNG1 nanodisc) thereby removing contributions from refractive index changes. In addition, running buffer injections were performed to allow subtraction of the signal changes resulting from the dissociation of captured antibodies from the coupled anti-His surface. Kinetic association (kₐ) and dissociation ([…]) rate constants were determined by fitting the real-time sensorgrams to a 1:1 binding model using Scrubber v2.0c curve fitting software. Binding dissociation equilibrium constants (KD) and dissociative half-lives (t %) were calculated from the kinetic rate constants as: […]

| Binder | Kd | koff | kon | mAb bound at 300 nM | t1/2 |
| --- | --- | --- | --- | --- | --- |
| B1 | 12.6 nM | 0.0243 s⁻¹ | 1.93e+06 M⁻¹ s⁻¹ | 23 RU | 0.5 min |
| B2 | 1.19 nM | 0.000406 s⁻¹ | 342000 M⁻¹ s⁻¹ | 19 RU | 28.4 min |
| B3 | 1.98 nM | 0.000301 s⁻¹ | 152000 M⁻¹ s⁻¹ | 31 RU | 38.4 min |
| B4 | 17.1 nM | 0.00395 s⁻¹ | 231000 M⁻¹ s⁻¹ | 16 RU | 2.9 min |
| B5 | 0.635 nM | 4.72e-05 s⁻¹ | 74200 M⁻¹ s⁻¹ | 53 RU | 245 min |

target: T1, mouse CACNG1 expressed on cells; experiment: imaging cell binding, HEK293/mCACNG1
Procedure: as §1, §2

| Binder | EC50 | S/N |
| --- | --- | --- |
| B1 | > 100 nM | 7.2 fold |
| B2 |  | 1.4 fold |
| B3 | 0.26 nM | 69.4 fold |
| B4 | > 100 nM | 2.2 fold |
| B5 | > 100 nM | 2.7 fold |
| B6 |  | 0.8 fold |

target: T2, human CACNG1 expressed on cells; experiment: imaging cell binding, HuSKM myotubes
Procedure: as §1, §2

| Binder | EC50 | S/N |
| --- | --- | --- |
| B2 | 0.13 nM | 559 fold |
| B3 | 0.2 nM | 1060 fold |
| B4 | 0.48 nM | 321 fold |
| B6 | 1.3 nM | 467 fold |

target: T2, human CACNG1 expressed on cells; experiment: imaging cell binding, HEK293/hCACNG1
Procedure: as §1, §2

| Binder | EC50 | S/N |
| --- | --- | --- |
| B2 | 0.21 nM | 51.2 fold |
| B3 | 2.7 nM | 91.3 fold |
| B4 | 3.3 nM | 93.4 fold |
| B6 | 2.4 nM | 138 fold |
